{"source": "patent US20240067721A1", "about": "(UNIVERSITY OF BIRMINGHAM, published 2024)", "key": {"[1]": {"biological_target": "full length GPVI on transfected DT40 cells (with FcR-γ chain) (UniProt Q9HCN6)", "experiment": "cell-based or functional assay"}, "[2]": {"biological_target": "T1, recombinant GPVI-Fc (dimeric; D1 and D2 domains of GPVI fused to the Fc domain from IgG) (human, UniProt Q9HCN6 22-203)", "T1 construct": "range 22-203; also called GPVI-Fcγ; dimeric GPVI; not shown: Factor Xa cleavable junction and Fc domain from IgG (Sigplg+ vector)", "T1 sequence (looked up)": "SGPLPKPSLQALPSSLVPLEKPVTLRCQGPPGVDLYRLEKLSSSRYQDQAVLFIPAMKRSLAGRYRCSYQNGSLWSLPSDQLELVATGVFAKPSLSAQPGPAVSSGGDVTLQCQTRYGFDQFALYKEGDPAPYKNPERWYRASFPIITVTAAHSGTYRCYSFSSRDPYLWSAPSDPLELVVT", "experiment": "solid-phase binding assay, displacement of GPVI-Fc (100 nM) from a collagen surface"}, "[3]": {"biological_target": "T2, GPVI on human washed platelets (human, UniProt Q9HCN6 21-339)", "T2 sequence (looked up)": "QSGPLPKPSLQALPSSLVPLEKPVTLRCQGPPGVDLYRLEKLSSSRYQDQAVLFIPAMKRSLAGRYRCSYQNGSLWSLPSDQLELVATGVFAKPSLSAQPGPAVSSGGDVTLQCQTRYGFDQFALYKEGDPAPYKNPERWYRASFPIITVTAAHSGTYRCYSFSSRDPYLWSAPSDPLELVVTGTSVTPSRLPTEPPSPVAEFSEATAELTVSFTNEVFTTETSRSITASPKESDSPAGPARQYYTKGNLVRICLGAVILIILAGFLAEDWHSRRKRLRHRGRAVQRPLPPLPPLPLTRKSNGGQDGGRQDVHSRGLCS", "experiment": "cell-based or functional assay"}, "[4]": {"biological_target": "T3, full length GPVI on transfected DT40 cells (with FcR-γ chain) (UniProt Q9HCN6 21-339)", "T3 sequence (looked up)": "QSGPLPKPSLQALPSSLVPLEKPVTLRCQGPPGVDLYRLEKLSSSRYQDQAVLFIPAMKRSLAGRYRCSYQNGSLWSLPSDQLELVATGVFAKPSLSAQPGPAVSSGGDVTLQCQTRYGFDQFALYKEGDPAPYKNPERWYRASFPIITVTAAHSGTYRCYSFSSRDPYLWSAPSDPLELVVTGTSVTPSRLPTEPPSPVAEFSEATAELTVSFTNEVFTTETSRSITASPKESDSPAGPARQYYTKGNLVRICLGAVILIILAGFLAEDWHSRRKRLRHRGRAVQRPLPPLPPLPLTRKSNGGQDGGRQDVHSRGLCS", "experiment": "cell-based or functional assay"}, "[5]": {"biological_target": "T1, recombinant GPVI-Fc (dimeric; D1 and D2 …)", "experiment": "SPR (Biacore T200), GPVI-Fc amine-coupled on CM5 chip, Nb2 in solution, 1:1 kinetic fit", "method": "Surface plasmon resonance experiments were performed using a Biacore T200 instrument (GE Healthcare). GPVI was immobilised directly onto the CM5 chip using amine-coupling. Reference surfaces were blocked using 1M ethanolamine pH 8. All sensograms shown are double reference subtracted and at least two replicates were injected per cycle as well as experimental replicates of n=3. Experiments were performed at 25° C. with a flow rate of 30 μL/min in HBS-P running buffer (10 mM HEPES pH 7.4, 0.15 M NaCl, 0.005% v/v surfactant P20). Each concentration of Nb2 was run as follows; 120 sec injection, 900 sec dissociation. Kinetic analysis was performed using the Biacore T200 Evaluation software using a global fitting to a 1:1 binding model."}, "[6]": {"biological_target": "monomeric GPVI (GPVI-Fc cleaved with Factor Xa, Fc removed) (human) (UniProt Q9HCN6)", "experiment": "SPR (Biacore T200), GPVI amine-coupled on CM5 chip, Nb2 in solution, 1:1 kinetic fit; immobilised monomeric GPVI, not GPVI-Fc"}, "[7]": {"biological_target": "T1, recombinant GPVI-Fc (dimeric; D1 and D2 …)", "experiment": "solid-phase binding assay: GPVI-Fc coated surface, nanobody 100 nM per the legend (1 µM per paragraph 122), anti-His HRP, Fc-surface signal subtracted, normalised to Nb35 [cont) b]", "method": "FIG. 1. […] Results were plotted as a percentage of total signalling in the presence of collagen only. Dotted lines represent 100, 60 and 20% signalling levels. Data represent mean values of three experiments performed in triplicate±standard deviation. b) Surface binding assay of one nanobody (100 nM) from each family binding to a GPVI-Fc coated-surface. All the binding results have been normalised to Nb35 which gave the highest readout. Binding of each nanobody to the Fc domain-coated surface was tested and subtracted from the GPVI-Fc readings. Binding was detected using HRP conjugated anti-His antibody. The average binding of all the nanobodies to BSA represents a non-specific binding control. Data represent mean values of three experiments±standard deviation.\nThe recombinant GPVI used for immunisation and testing consisted of the extracellular D1 and D2 domains fused with the Fc domain from IgG. Immunisation with GPVI-Fc yielded 54 distinct nanobody sequences. The Fc domain was used to test whether the nanobodies recognise this region. The 54 nanobodies were categorized into 33 distinct binding classes on the basis of their complementary determining loop (CDR) 3 regions, which is the region that confers ligand specificity. Nanobodies (1 μM) from each binding class were tested for their ability to recognise a recombinant GPVI-Fc coated surface (FIG. 1b). The degree of nanobody binding varied between classes and could be categorised into strong (>50%), moderate (>20%) and weak binders (<20%). Strong binders included Nb2, 21, 35 and 52. Moderate binders included Nb7, 18, 28 and 54. All other nanobodies were considered to be weak binders."}, "[8]": {"biological_target": "T1, recombinant GPVI-Fc (dimeric; D1 and D2 …)", "experiment": "solid-phase binding assay, displacement of GPVI-Fc (100 nM) from a collagen surface (legend of Fig. 4a; differs from the text)"}}, "data": [{"molecule": "collagen (Horm collagen I, fibrillar) (ligand)", "values": [{"measurement": "fold increase in NFAT activity (luciferase reporter)", "setting": "[1]", "value": 8.3, "unit": "fold"}]}, {"molecule": "Nanobody 35 (Nb35), with C-terminal HA and His tags (VHH) VHH: QVQLQESGGGLVQAGGSLRLSCAASGVTFDSAAMAWFRQVPGKEREFVAVISTESGGRTDHADSVKGRFLISRDNARHMVYLQMNSLNPEDTAVYYCASSLLYCSASGCYANRDSYDYWGQGTQVTVSSAAAYPYDVPDYGSHHHHHH", "values": [{"measurement": "IC50", "setting": "[2]", "value": 39, "unit": "nM"}, {"measurement": "IC50, inhibition of washed platelet aggregation to CRP (10 µg/ml)", "setting": "[3]", "value": 1, "unit": "nM"}, {"measurement": "IC50, inhibition of washed platelet aggregation to collagen (5 µg/mL)", "setting": "[3]", "value": 115, "unit": "nM"}]}, {"molecule": "Nanobody 5 (Nb5) (VHH) VHH: QVQLQESGGGLVQPGGSLRLSCAASGFTLDSHTIGWFRQAPGKEREGVSGINSSDGSTYYADSVKGRFTISRDNAKNTVYLQMDSLKVEDTAVYYCATTPFSLRGPTWVTPDEFDYWGQGTQVTVSSAAAYPYDVPDYGSHHHHHH", "values": [{"measurement": "inhibition of collagen-stimulated NFAT reporter activity (nanobody 100 nM, collagen 10 µg/ml)", "setting": "[4]", "value": "> 40", "unit": "%"}]}, {"molecule": "Nanobody 2 (Nb2), with C-terminal HA and His tags (VHH, Tagged form (detected with anti-His in ELISA and flow cytometry)) VHH: QVQLQESGGGLVQPGGSLRLSCAAAGFTFDYYAIAWFRQAPGKEREGVSCISSSDGTTYYADSVKGRFTISKDNAKNTMYLQMNSLKPEDTAVYYCATSPLYSTNDRCISEDYDYWGQGTQVTVSSAAAYPYDVPDYGSHHHHHH", "values": [{"measurement": "IC50", "setting": "[2]", "value": 18, "unit": "nM"}, {"measurement": "inhibition of collagen-stimulated NFAT reporter activity (nanobody 100 nM, collagen 10 µg/ml)", "setting": "[1]", "value": "> 80", "unit": "%"}, {"measurement": "Kd", "setting": "[5]", "value": 0.7, "unit": "nM"}, {"measurement": "Kd", "setting": "[6]", "value": 0.58, "unit": "nM"}, {"measurement": "IC50, inhibition of washed platelet aggregation to CRP (10 µg/ml)", "setting": "[3]", "value": 1, "unit": "nM"}, {"measurement": "IC50, inhibition of washed platelet aggregation to collagen (5 µg/mL)", "setting": "[3]", "value": 172, "unit": "nM"}]}, {"molecule": "Nanobody 25 (Nb25) (VHH) VHH: QVQLQESGGGLVQPGGSLRLSCAASGFTLDNYAIGWFRQAPGKEREGVSCISSSDGRTYYADSVKGRFTISRDNAKNTMYLQMNSLKPEDTAVYYCATSPLYSDSDRCIWEEYDYWGQGTQVTVSSAAAYPYDVPDYGSHHHHHH", "values": [{"measurement": "inhibition of collagen-stimulated NFAT reporter activity (nanobody 100 nM, collagen 10 µg/ml)", "setting": "[4]", "value": "> 40", "unit": "%"}, {"measurement": "binding result", "setting": "[7]", "value": "binds"}]}, {"molecule": "Nanobody 21 (Nb21), with C-terminal HA and His tags (VHH) VHH: QVQLQESGGGLVQPGGSLRLSCAASGRTFTRSIMGWFHQAPGKEREFLAGISWSGANTYYADSVRGRFTISRDNAKNTVSLQMNSLNPEDTAVYYCAADPSHPGSLISTRRSDYDSWGRGTQVTVSSAAAYPYDVPDYGSHHHHHH", "values": [{"measurement": "IC50", "setting": "[2]", "value": 61, "unit": "nM"}, {"measurement": "IC50", "setting": "[8]", "value": 62, "unit": "nM"}, {"measurement": "inhibition of collagen-stimulated NFAT reporter activity (nanobody 100 nM, collagen 10 µg/ml)", "setting": "[4]", "value": "> 80", "unit": "%"}, {"measurement": "IC50, inhibition of washed platelet aggregation to CRP (10 µg/ml)", "setting": "[3]", "value": 22, "unit": "nM"}, {"measurement": "IC50, inhibition of washed platelet aggregation to collagen (5 µg/mL)", "setting": "[3]", "value": 85, "unit": "nM"}]}, {"molecule": "Nanobody 19 (Nb19) (VHH) VHH: QVQLQESGGGLVQAGGSLRLSCAASGRTFSSDAMGWFRQAPGKEREFVAAIRWSGGSTYYADSVKGRFTISRGNAKNTVYLQMNSLKPEDTAVYYCASSLLNSYYPPDHTSYEYDYWGQGTQVTVSSAAAYPYDVPDYGSHHHHHH", "values": [{"measurement": "inhibition of collagen-stimulated NFAT reporter activity (nanobody 100 nM, collagen 10 µg/ml)", "setting": "[4]", "value": "> 40", "unit": "%"}, {"measurement": "binding result", "setting": "[7]", "value": "binds"}]}, {"molecule": "Nanobody 28 (Nb28) (VHH) VHH: QVQLQESGGGLVQAGDSLRLSCAASGTYSMGWFRQAPGKEREFVAAISWSGGRTNYADSVKGRFTISRDNAKNTVYLQMNSLKPEDTAVYYCSAAIYDNVSSRIGSYTYWGQGTQVTVSS", "values": [{"measurement": "binding result", "setting": "[7]", "value": "binds"}]}, {"molecule": "Nanobody 33 (Nb33) (VHH) VHH: QVQLQESGGGLVQAGDSLRLSCAASGRTFSSYVMGWFRQAPGKEREFVAAISWSGGSTYYADSVKGRFTISRDNAKNTVYLQMNSLKPEDTAVYYCAAADPPSFYSDYDWPRDHEYDYWGQGTQVTVSSAAAYPYDVPDYGSHHHHHH", "values": [{"measurement": "inhibition of collagen-stimulated NFAT reporter activity (nanobody 100 nM, collagen 10 µg/ml)", "setting": "[4]", "value": "> 40", "unit": "%"}, {"measurement": "binding result", "setting": "[7]", "value": "binds"}]}, {"molecule": "Nanobody 44 (Nb44) (VHH) VHH: QVQLQESGGGLVQPGGALRLSCAASGFTLDYYAIGWFRQAPGKEREAVSCISSSDGSTYYADSVKGRFTISRDNAKNTVYLQMNSLKPEDTAVYYCATDPFYSDINCKSYEYAYWGQGTQVTVSSAAAYPYDVPDYGSHHHHHH", "values": [{"measurement": "inhibition of collagen-stimulated NFAT reporter activity (nanobody 100 nM, collagen 10 µg/ml)", "setting": "[4]", "value": "> 40", "unit": "%"}, {"measurement": "binding result", "setting": "[7]", "value": "binds"}]}, {"molecule": "Nanobody 22 (Nb22) (VHH) VHH: QVQLQESGGGLVQAGGSLRLSCAPSGRTISSVDVGWFRQAPGKEREFVAHVTWSGGSTYAADSVKGRFTVSRDNAKNTVYLQMNSLKPEDTAVYYCAAALNGAFRDSWYPALWDEYDYWGQGTQVTVSSAAAYPYDVPDYGSHHHHHH", "values": [{"measurement": "inhibition of collagen-stimulated NFAT reporter activity (nanobody 100 nM, collagen 10 µg/ml)", "setting": "[4]", "value": "> 40", "unit": "%"}, {"measurement": "binding result", "setting": "[7]", "value": "binds"}]}, {"molecule": "Nanobody 1 (Nb1) (VHH) VHH: QVQLQESGGGLVQAGGSLRLSCASSGFTFSGYQLAWFRHVAPGKEREFVAAIRWSGGITWYADSVKGRFTISRDNAKNTMYLQMNSLKPEETAVYYCAASPLYSNNYLLPDNYDYWGQGTQVTVSSAAAYPYDVPDYGSHHHHHH", "values": [{"measurement": "inhibition of collagen-stimulated NFAT reporter activity (nanobody 100 nM, collagen 10 µg/ml)", "setting": "[4]", "value": "> 40", "unit": "%"}]}]}
